Changes are numbered by the printed parent chain.
T1: cynomolgus monkey C16orf54 (cynomolgus monkey (Macaca fascicularis), UniProt Q6UWD8 1-224 (human entry))
T1 construct: also called cyno C16orf54; cyno-C16orf54
T1 chain: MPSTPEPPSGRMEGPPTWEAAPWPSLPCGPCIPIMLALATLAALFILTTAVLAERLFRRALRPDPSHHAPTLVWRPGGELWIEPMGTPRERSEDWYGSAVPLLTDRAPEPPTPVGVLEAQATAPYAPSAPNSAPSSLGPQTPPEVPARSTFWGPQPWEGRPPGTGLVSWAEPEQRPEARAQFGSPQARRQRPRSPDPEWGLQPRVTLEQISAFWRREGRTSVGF

T2: human C16orf54 (human, UniProt Q6UWD8 1-224)
T2 construct: also called huC16orf54; hC16orf54
T2 sequence: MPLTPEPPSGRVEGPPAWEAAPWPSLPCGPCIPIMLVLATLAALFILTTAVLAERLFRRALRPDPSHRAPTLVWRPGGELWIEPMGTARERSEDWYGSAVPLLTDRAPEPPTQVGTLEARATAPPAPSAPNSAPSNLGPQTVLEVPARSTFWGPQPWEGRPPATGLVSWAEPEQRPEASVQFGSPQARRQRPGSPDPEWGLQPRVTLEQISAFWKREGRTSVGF

B1: R29-8-50C (antibody, V domains shown)
VH: EVKLVESGGGLVKPGGSLKFSCAASGFTFSSYAVSWVRQTPEKRLEWVASITSGGRTYYPDSVKGRFTISRDNARSMLYLHMSSLRSEDTAMYYCTRGWDENDLWGQGTTLTVSS
VL: DVVMTQTPLSLPVSLGDQASISCRSSQSLVYSNGNTYLHWYLQRPGQSPQLLIYKVSNRFSGVPDRFSGSGSGTDFTLKISRVEAEDLGVYFCSQTTHVPWTFGGGTKLEIK
notes: Murine monoclonal antibody from a hybridoma
B2: R29-8-9B (antibody, V domains shown)
VH: EVKLVESGGGVVKPGGSLKLSCAASGFTFSSYAMSWFRQTSEMSLEWVASITGGGGTYYPDSVKGRFTISRDTVRNILYLQMRSLRSGDTAIYYCARGWDENDYWGQGTTLTVSS
VL: B1 VL with T7I, Y31F, L42F, R44K, Q50K, T77I, K79R, T96S
notes: as for B1
B3: R29-8-28C (antibody, V domains shown)
VH: EVKLVESGGGVVKPGGSLTLSCAASGFTFSNYAVSWFRQTPEKRLEWVASITSGGRTYYPDSMKGRFTISRDNARNILYLQMSSLRSEDTAIYYCGRGWDENDYWGQGTTLTVSS
VL: B1 VL with R44K, Q50K, S81N
notes: as for B1
B4: R29-8-120B (antibody, V domains shown)
VH: KVNLVESGGGLVKAGGSLKLSCAASGFTFSIYAMSWFRQTPEKRLEWVASITGGGTNFYPDSVRGRFTISRDNVRNILYLQMSSLRSEDTAMYYCARGWDENDYWGQGTTLTVSS
VL: B1 VL with R44K, Q50K, T96S
notes: as for B1
B5: R29-7A-54C (antibody, V domains shown)
VH: QVQLKESGPGLVAPSQSLSITCTVSGFSLTDYAISWIRQPPGKGLEWLGVIWGGGRTYSNSALKSRLSISKDNSRSQIFLKMNSLQTDDTAMYYCAKHEEVSRFAYWGQGTLVTVSV
VL: B1 VL with M4L, T36S, R44K, Q50K, S81T, T96S, V99I, W101L, G105A, I111L
notes: Murine monoclonal antibody from a hybridoma; also called R29-7-54C
B6: R29-7A-53A (antibody, V domains shown)
VH: B5 VH
VL: B1 VL with M4L, T36S, R44K, Q50K, S81T, T96S, V99I, W101L, G105A, I111L
notes: Murine monoclonal antibody from a hybridoma; also called R29-7-53A
B7: R29-8-19B (antibody, V domains shown)
VH: B1 VH
VL: B1 VL with R44K
notes: as for B1
B8: R29-8-12A (antibody, V domains shown)
VH: B1 VH
VL: B1 VL with R44K
notes: as for B1
B9: R29-8-36C (antibody, V domains shown)
VH: B1 VH with T57S
VL: B1 VL with P12F, V30L
notes: as for B1
B10: R29-7-1C-mcMMAF (protein)
VH: DVQLQESGPGLVKPSQSLSLTCTVTGYSITSDYAWNWIRQFPGNKLEWMGYISYSGSIRYNPSLKSRISITRDTSKNQFFLQLNSVTTEDTATYYCAREKYDNYYYAMDYWGQGTSVTVSS
VL: DIVMSQSPSSLAVSVGEKVTLSCKSSQNLLYSTNQKNYLAWYQQKPGQSPKLLIYWASTRESGVPDRFTGSGSGTDFTLTISSVKAEDLAVYYCQQYYSYRTFGGGTKLEIK
modifications: maleimidocaproyl-monomethylauristatin F (MC-MMAF) on reduced cysteine thiols of the antibody; positions not given
B11: R29-67-7A mcMMAF (protein)
VH: B10 VH with S53N, S57R, I58T, K65N, I70L, K76T, K100N, N103Y, Y104E, Y105F
VL: B10 VL with L21M, T33S, S99I
modifications: maleimidocaproyl-monomethylauristatin F (MC-MMAF) on reduced cysteine thiols of the antibody; positions not given
B12: R29-8-57B mcMMAF (protein)
VH: B10 VH with S53N, I58T, Q78H, T88P, Y95H, K100R, N103G, Y104V, A107G
VL: B10 VL with L21M, N28S, T33S, A86T
modifications: maleimidocaproyl-monomethylauristatin F (MC-MMAF) on reduced cysteine thiols of the antibody; positions not given

Target: T1, cynomolgus monkey C16orf54
Assay: flow cytometry, 10 ug/ml antibody, F279-cyno-C16orf54 cells
Conditions: not given
Experimental: (§1) Anti-C16orf54 antibodies which bound to human C16orf54 were tested for their reactivity with human C16orf54 and their crossreactivity with C16orf54 from cynomolgous monkeys (cyno C16orf54) using flow cytometry. Sarcoma cells transfected with and expressing human C16orf54 or cyno C16orf54 were washed with PBS with 0.1% BSA, incubated with FcX receptor blocking solution (BioLegend) for 15 minutes, incubated with 10 μg/ml of anti-C16orf54 antibody for 1 hour at 4° C., washed twice with PBS with 0.1% BSA, incubated with 20 μg/ml of R-Phycoerythrin-AffiniPure F(ab′)2 Fragment Goat Anti-Mouse IgG, Fcγ Fragment Specific (Jackson ImmunoResearch) for 30 minutes at 4° C., washed twice with PBS with 0.1% BSA, incubated with the viability dye TO-PRO-3 iodide (Life Technologies), and immediately analyzed on a MACSQuant Analyzer instrument (Miltenyi). For each cell line and anti-C16orf54 antibody, a fold change was derived by dividing the median fluorescence intensity for Phycoerythrin in the live cell population for the anti-C16orf54 antibody by the median fluorescence intensity for Phycoerythrin in the live cell population for the IgG isotype control antibody. A number of anti-C16orf54 antibodies (see, e.g., R29-8-57B, R29-8-136C, R29-7-1C, R29-67-7A, R29-67-4A, and R29-7-2A) bind human C16orf54 and also bind (e.g., are crossreactive with) cyno C16orf54.
With B1 the “Median fold change relative to IgG control” value was 3.2 fold. B2 was tested, and the “Median fold change relative to IgG control” value was 2 fold. With B3 the “Median fold change relative to IgG control” value was 3.3 fold. B4 was tested, and the “Median fold change relative to IgG control” value was 5.2 fold. For B5, the “Median fold change relative to IgG control” value was 1 fold. With B6 the “Median fold change relative to IgG control” value was 1.2 fold. In the case of B7, the “Median fold change relative to IgG control” value is reported as 4.5 fold. In the case of B8, the “Median fold change relative to IgG control” value is reported as 3.6 fold. For B9, the “Median fold change relative to IgG control” value was 3.6 fold.

These molecules were tested on KG-1 (acute myeloid leukemia) xenograft (assay: not given). Conditions: Table 44; dose not given; KG-1 AML model.
Assay type: in vivo, NOD-SCID mice
Experimental: Subcutaneous tumors are generated by injection of 1×10^7 cancer cells in a mixture of PBS (without magnesium or calcium) and BD Matrigel™ (BD Biosciences) at a 1:1 ratio in the right flank of female SCID or nu^−/− mice. The injected total volume per mouse is […] with 50% being Matrigel (BD Biosciences). Mice are randomized once tumors reach a size between 65-200 mm^3. Antibodies are administered weekly, and body weights and tumors are measured once and twice weekly, respectively. Tumor volume is calculated as described (van der Horst et al. (2009) Neoplasia 11: 355-364). As a negative control, mice are injected with either purified mouse IgG or PBS; or a purified monoclonal antibody that recognizes an antigen other than C16orf54.
Anti-C16orf54 antibodies were tested for their anti-tumor activity in an animal-tumor model. For these studies, the cell line KG-1 (acute myeloid leukemia) was obtained from ATCC and cultured according to the suppliers' protocols. Animals were obtained from Taconic (Hudson, N.Y.). Studies were conducted with anti-C16orf54 antibodies and antibody-drug conjugates (ADCs) of these antibodies.
In these experiments, 4-6 week-old immunodeficient NOD-SCID female mice were used for the KG-1 tumor model. Mice were subcutaneously injected on the right flank with 6×10^6 viable cells (KG-1) in a mixture of PBS (without magnesium or calcium) and BD Matrigel™ (BD Biosciences). Once the tumor reached a size between 65-200 mm^3 mice were randomized. Anti-C16orf54 antibodies were administered weekly, and bodyweights and tumors were measured once and twice weekly, respectively. Tumor volume was calculated as described (van der Horst et al., supra). Experiments were performed on groups of at least eight animals per experimental point.
Statistical significance between treatment and control groups was calculated using the Graphpad Prism® software package and applying Student's two-tailed t-test. A p-value of less than 0.05 was considered significant.
With `O=P1(N(CCCl)CCCl)NCCCO1` (stereo not drawn) [Cyclophosphamide] the TGI was −42% and the Volume was 1580 mm^3.

The molecules below were run against T2, human C16orf54 (assay: cell-based or functional assay). Conditions: not given.
B10 gave an IC50 nM, cell viability, C16orf54 expressing sarcoma line 2, 72 hours of 0.2 nM and an IC50 (nM), cell viability, C16orf54 expressing Sarcoma line 1, 72 hours of 0.1 nM. B11 was tested, and the IC50 nM, cell viability, C16orf54 expressing sarcoma line 2, 72 hours was 0.1 nM and the IC50 (nM), cell viability, C16orf54 expressing Sarcoma line 1, 72 hours was 0.1 nM. In the case of B12, the IC50 nM, cell viability, C16orf54 expressing sarcoma line 2, 72 hours is reported as 0.1 nM and the IC50 (nM), cell viability, C16orf54 expressing Sarcoma line 1, 72 hours is reported as 0.2 nM.

The molecules below were run against T2, human C16orf54 (assay: flow cytometry titration, KG1 cells (endogenous human C16orf54)). Conditions: not given.
B1 was tested, and the EC50 was 0.7 nM. With B2 the EC50 was 1.5 nM. B3 was tested, and the EC50 was 2.1 nM. B4 gave an EC50 of 2.6 nM. With B7 the EC50 was 0.9 nM. Molecule B8 has an EC50 of 1.1 nM. For B9, the EC50 was 0.6 nM.

What follows are molecules tested against T2, human C16orf54 (assay: flow cytometry, 10 ug/ml antibody, D42M1-huC16orf54 cells). Conditions: not given.
Experimental: as §1
For B1, the “Median fold change relative to IgG control” value was 159 fold. In the case of B2, the “Median fold change relative to IgG control” value is reported as 194 fold. With B3 the “Median fold change relative to IgG control” value was 156 fold. With B4 the “Median fold change relative to IgG control” value was 106 fold. For B5, the “Median fold change relative to IgG control” value was 12.1 fold. With B6 the “Median fold change relative to IgG control” value was 5.7 fold. In the case of B7, the “Median fold change relative to IgG control” value is reported as 198 fold. B8 was tested, and the “Median fold change relative to IgG control” value was 193 fold. For B9, the “Median fold change relative to IgG control” value was 184 fold.
